Bridge positions count the residues as written; N and C are the ends. Square brackets hold non-standard residues; d marks the D form. * marks the point of attachment. Aad = N[C@@H](CCCC(=O)O)C(=O)O; Orn = NCCC[C@H](N)C(=O)O; Dab = NCC[C@H](N)C(=O)O; NHcPr = C1CC1N*
B1: Ac-Arg-cyclo(Lys-Asn-D-Phe-Arg-Nal 2-Asp)-NH2 (peptide)
peptide: RKNFRXD
HELM: PEPTIDE1{[ac].R.K.N.[dF].R.[O=C([C@H](Cc1ccc2ccccc2c1)N[*:1])[*:2]].D.[am]}$PEPTIDE1,PEPTIDE1,3:R3-8:R3$$$V2.0
SMILES: CC(=O)N[C@@H](CCCNC(=N)N)C(=O)N[C@H]1CCCCNC(=O)C[C@@H](C(N)=O)NC(=O)[C@H](Cc2ccc3ccccc3c2)NC(=O)[C@H](CCCNC(=N)N)NC(=O)[C@@H](Cc2ccccc2)NC(=O)[C@H](CC(N)=O)NC1=O
notes: also called peptide No. 162
B2: Ac-Arg-cyclo(Dab-Gln-D-Phe-Arg-Trp-hGlu)-NH2 (peptide)
peptide: RXQFRWX
modifications: N-acetyl; X2 = Dab; D-Phe 4; X7 = hGlu; side-chain lactam Dab2-hGlu7; C-terminal amide
notes: also called peptide No. 159
B3: Ac-Arg-cyclo(Asp-Gln-D-Phe-Arg-Trp-Lys)-NH2 (peptide)
peptide: Ac-RDQ[dF]RWK-NH2
modifications: lactam 2-7
notes: any difference is only in the drawings; also called peptide No. 32

Target: T1, human recombinant melanocortin-4 receptor (human, UniProt P32245 1-332)
T1 construct: whole, on cells; cAMP assays used the whole cells; also called hMC4-R; MC4-R
Test: competitive inhibition of [I125]-NDP-α-MSH, hMC4-R HEK-293 membranes
Procedure: (§1) A competitive inhibition binding assay is performed using membrane homogenates prepared from HEK-293 cells that express recombinant hMC4-R, hMC3-R, or hMC5-R, and from B-16 mouse melanoma cells (containing endogenous MC1-R). In some instances, HEK-293 cells that express recombinant hMC1-R were employed. In the examples that follow, all MC3-R, MC4-R and MC5-R values are for human recombinant receptors. […] Membrane homogenates were incubated with 0.2 nM (for hMC4-R) 0.4 nM (for MC3-R and MC5-R) or 0.1 nM (for mouse B16 MC1-R or hMC1-R) [I¹²⁵]-NDP-α-MSH (Perkin Elmer) and increasing concentrations of test peptides of the present invention in buffer containing 25 mM HEPES buffer (pH 7.5) with 100 mM NaCl, 2 mM CaCl₂, 2 mM MgCl₂, 0.3 mM 1,10-phenanthroline, and 0.2% bovine serum albumin. After incubation for 60 minutes at 37° C., the assay mixture was filtered and the membranes washed three times with ice-cold buffer. Filters were dried and counted in a gamma counter for bound radioactivity. […] Maximal specific binding (100%) was defined as the difference in radioactivity (cpm) bound to cell membranes in the absence and presence of 1 μM NDP-α-MSH. […] Each assay was conducted in triplicate and the actual mean values are described, with results less than 0% reported as 0%. Ki values for test peptides of the present invention were determined using Graph-Pad Prism® curve-fitting software.
(§2) 9.1 Peptides of the following structures were synthesized by the general methods described above, and averaged MC4-R Ki values for peptides were determined as indicated. […] Ki values marked “ND” were not determined.

T1 sequence (P32245 whole entry): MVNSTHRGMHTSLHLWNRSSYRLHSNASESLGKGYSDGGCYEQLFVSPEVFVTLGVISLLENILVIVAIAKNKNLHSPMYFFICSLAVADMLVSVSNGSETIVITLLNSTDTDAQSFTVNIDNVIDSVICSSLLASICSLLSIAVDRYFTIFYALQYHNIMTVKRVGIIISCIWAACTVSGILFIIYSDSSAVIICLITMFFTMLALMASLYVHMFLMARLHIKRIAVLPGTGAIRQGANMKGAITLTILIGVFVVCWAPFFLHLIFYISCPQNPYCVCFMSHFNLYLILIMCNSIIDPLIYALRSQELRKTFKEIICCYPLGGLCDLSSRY

Binder | Ki [nM]
Ac-RKN[dF]RWD-NH2 (lactam 2-7) [Ac-Arg-cyclo(Lys-Asn-D-Phe-Arg-Trp-Asp)-NH2] | 5
Ac-[dR]DQ[dF]RWK-NH2 (lactam 2-7, also called peptide No. 71) [Ac-D-Arg-cyclo(Asp-Gln-D-Phe-Arg-Trp-Lys)-NH2] | 45
Ac-REN[dF]RW[Orn]-NH2 (lactam 2-7, also called peptide No. 161) [Ac-Arg-cyclo(Glu-Asn-D-Phe-Arg-Trp-Orn)-NH2] | 6
B1 | 5
B2 | 4
Ac-R[Aad]N[dF]RW[Dab]-NH2 (lactam 2-7, also called peptide No. 160) [Ac-Arg-cyclo(hGlu-Asn-D-Phe-Arg-Trp-Dab)-NH2] | 8

Target: T1, human recombinant melanocortin-4 …
Test: cell-based or functional assay

Binder | intrinsic activity (cAMP; NDP-α-MSH = 100%) [%] | EC50 (cAMP) [nM]
Ac-R[Dab]H[dF]RW[Aad]-NH2 (lactam 2-7) [Ac-Arg-cyclo(Dab-His-D-Phe-Arg-Trp-hGlu)-NH2] | 95 | 
Ac-RDV[dF]RWK-NH2 (lactam 2-7, also called peptide No. 16) [Ac-Arg-cyclo(Asp-Val-D-Phe-Arg-Trp-Lys)-NH2] | 42 | 
Ac-RDH[dF]RWK-NH2 (lactam 2-7, also called peptide No. 1) [Ac-Arg-cyclo(Asp-His-D-Phe-Arg-Trp-Lys)-NH2] | 91 | 
B3 | 98 | 17

Target: T1, human recombinant melanocortin-4 …
Test: competitive inhibition of Eu-NDP-α-MSH (TRF), hMC4-R HEK-293 membranes
Procedure: After incubation for 90 minutes at 37° C., the reaction was stopped by filtration over AcroWell 96-well filter plates (Pall Life Sciences). The filter plates were washed 4 times with 200 μL of ice-cold phosphate-buffered saline. DELFIA Enhancement solution (PerkinElmer Life Sciences) was added to each well. The plates were incubated on a shaker for 15 minutes and read at 340 nm excitation and 615 nm emission wavelengths. Each assay was conducted in duplicate and mean values were utilized. Ki values were determined by curve-fitting with Graph-Pad Prism® software using a one-site fixed-slope competition binding model.
as §2

Binder | Ki [nM]
Ac-[dR][Orn]H[dF]RWE-NH2 (lactam 2-7, also called peptide No. 98) [Ac-D-Arg-cyclo(Orn-His-D-Phe-Arg-Trp-Glu)-NH2] | 4
Ac-RE[Orn][dF]RW[Orn]-NH2 (lactam 2-7, also called peptide No. 104) [Ac-Arg-cyclo(Glu-Orn-D-Phe-Arg-Trp-Orn)-NH2] | 9
Ac-R[Orn][Dab][dF]RWE-NH2 (lactam 2-7, also called peptide No. 119) [Ac-Arg-cyclo(Orn-Dab-D-Phe-Arg-Trp-Glu)-NH2] | 3
Ac-RD[Pro(4R-3-Cl-Bzl)][dF]RWK-NH2 (lactam 2-7, also called peptide No. 124) [Ac-Arg-cyclo(Asp-Pro(4R-3-Cl-Bzl)-D-Phe-Arg-Trp-Lys)-NH2] | 19
Ac-RD[Pro(4R-2-Cl-Bzl)][dF]RWK-NH2 (lactam 2-7, also called peptide No. 123) [Ac-Arg-cyclo(Asp-Pro(4R-2-Cl-Bzl)-D-Phe-Arg-Trp-Lys)-NH2] | 8
Ac-REH[dF]RW[Orn]-NHcPr (lactam 2-7, also called peptide No. 110) [Ac-Arg-cyclo(Glu-His-D-Phe-Arg-Trp-Orn)-NH-cyclopropyl] | 1
Ac-REH[dF]RW[Orn]-NHEt (lactam 2-7, also called peptide No. 109) [Ac-Arg-cyclo(Glu-His-D-Phe-Arg-Trp-Orn)-NH-Et] | 6

Target: T2, human recombinant melanocortin-3 receptor (human, UniProt P41968 1-323)
T2 construct: whole, on cells; Membrane homogenates of HEK-293 cells expressing the receptor; also called hMC3-R; MC3-R
Test: competitive binding vs [I125]-NDP-α-MSH
Procedure: (§3) After incubation for 60 minutes at 37° C., the assay mixture was filtered and the membranes washed three times with ice-cold buffer. Filters were dried and counted in a gamma counter for bound radioactivity. […] Maximal specific binding (100%) was defined as the difference in radioactivity (cpm) bound to cell membranes in the absence and presence of 1 μM NDP-α-MSH. […] Each assay was conducted in triplicate and the actual mean values are described, with results less than 0% reported as 0%. Ki values for test peptides of the present invention were determined using Graph-Pad Prism® curve-fitting software.

T2 sequence (P41968 whole entry): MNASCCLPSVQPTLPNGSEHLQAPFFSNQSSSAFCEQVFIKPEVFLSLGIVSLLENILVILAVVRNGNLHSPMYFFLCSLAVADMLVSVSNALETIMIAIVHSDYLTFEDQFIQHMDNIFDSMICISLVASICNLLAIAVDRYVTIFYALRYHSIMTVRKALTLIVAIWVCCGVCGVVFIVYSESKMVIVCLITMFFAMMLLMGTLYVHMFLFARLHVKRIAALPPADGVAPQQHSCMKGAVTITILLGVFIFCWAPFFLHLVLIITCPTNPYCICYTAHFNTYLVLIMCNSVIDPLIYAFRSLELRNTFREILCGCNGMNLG

Binder | Ki [nM]
B3 | 340

Target: T3, endogenous MC1-R of B-16 mouse melanoma cells (mouse, UniProt Q01727 1-315)
T3 construct: whole, on cells; membrane homogenates; also called mouse B16 MC1-R
Test: competitive binding vs [I125]-NDP-α-MSH
Procedure: as §3

T3 sequence (Q01727 whole entry): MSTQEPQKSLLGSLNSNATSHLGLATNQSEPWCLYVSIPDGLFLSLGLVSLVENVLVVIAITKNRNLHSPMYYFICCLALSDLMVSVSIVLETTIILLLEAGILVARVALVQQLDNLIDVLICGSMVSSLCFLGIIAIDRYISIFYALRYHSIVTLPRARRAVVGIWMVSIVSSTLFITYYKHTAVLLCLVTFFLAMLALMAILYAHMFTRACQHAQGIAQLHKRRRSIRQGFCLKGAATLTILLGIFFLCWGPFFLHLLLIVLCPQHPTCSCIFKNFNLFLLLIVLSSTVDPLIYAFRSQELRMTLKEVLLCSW

Binder | Ki [nM]
Ac-RDH[dF]RWK-NH2 (lactam 2-7, also called peptide No. 1) [Ac-Arg-cyclo(Asp-His-D-Phe-Arg-Trp-Lys)-NH2] | 3
B3 | 133

Target: T4, human recombinant melanocortin-1 receptor (human, UniProt Q01726 1-317)
T4 construct: whole, on cells; membrane homogenates of HEK-293 cells; also called hMC1-R
Test: competitive inhibition of labelled NDP-α-MSH, hMC1-R membranes
Procedure: as §1

T4 sequence (Q01726 whole entry): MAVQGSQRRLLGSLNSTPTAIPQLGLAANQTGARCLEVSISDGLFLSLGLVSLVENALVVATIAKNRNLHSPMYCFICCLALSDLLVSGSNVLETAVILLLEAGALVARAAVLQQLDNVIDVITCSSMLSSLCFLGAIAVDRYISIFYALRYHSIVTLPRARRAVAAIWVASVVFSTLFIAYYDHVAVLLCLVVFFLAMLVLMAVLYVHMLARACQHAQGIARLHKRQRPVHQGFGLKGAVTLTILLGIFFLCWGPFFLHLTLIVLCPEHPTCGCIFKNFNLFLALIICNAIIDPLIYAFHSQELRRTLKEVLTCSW

Binder | Ki [nM]
Ac-RKN[dF]RWD-NH2 (lactam 2-7) [Ac-Arg-cyclo(Lys-Asn-D-Phe-Arg-Trp-Asp)-NH2] | 240
Ac-R[Orn]N[dF]RWE-NH2 (lactam 2-7, also called peptide No. 154) [Ac-Arg-cyclo(Orn-Asn-D-Phe-Arg-Trp-Glu)-NH2] | 688
Ac-[dR][Orn]N[dF]RWE-NH2 (lactam 2-7, also called peptide No. 156) [Ac-D-Arg-cyclo(Orn-Asn-D-Phe-Arg-Trp-Glu)-NH2] | 840
Ac-REN[dF]RW[Orn]-NH2 (lactam 2-7, also called peptide No. 161) [Ac-Arg-cyclo(Glu-Asn-D-Phe-Arg-Trp-Orn)-NH2] | 155
B1 | 255
B2 | 133
Ac-R[Aad]N[dF]RW[Dab]-NH2 (lactam 2-7, also called peptide No. 160) [Ac-Arg-cyclo(hGlu-Asn-D-Phe-Arg-Trp-Dab)-NH2] | 295

Target: T1, human recombinant melanocortin-4 …
Test: ratio of Ki values, hMC1-R as reference

Binder | binding selectivity, MC4-R against MC1-R [fold]
Ac-RKN[dF]RWD-NH2 (lactam 2-7) [Ac-Arg-cyclo(Lys-Asn-D-Phe-Arg-Trp-Asp)-NH2] | ≥ 20
Ac-REN[dF]RW[Orn]-NH2 (lactam 2-7, also called peptide No. 161) [Ac-Arg-cyclo(Glu-Asn-D-Phe-Arg-Trp-Orn)-NH2] | ≥ 20
B1 | ≥ 20
B2 | ≥ 20

Target: T1, human recombinant melanocortin-4 …
Test: competitive inhibition of labelled NDP-α-MSH, hMC4-R membranes

Binder | Ki [nM]
Ac-RKN[dF]RWD-NH2 (lactam 2-7) [Ac-Arg-cyclo(Lys-Asn-D-Phe-Arg-Trp-Asp)-NH2] | 5
Ac-[dR]DQ[dF]RWK-NH2 (lactam 2-7, also called peptide No. 71) [Ac-D-Arg-cyclo(Asp-Gln-D-Phe-Arg-Trp-Lys)-NH2] | 45
Ac-REN[dF]RW[Orn]-NH2 (lactam 2-7, also called peptide No. 161) [Ac-Arg-cyclo(Glu-Asn-D-Phe-Arg-Trp-Orn)-NH2] | 6
B1 | 5
B2 | 4
Ac-R[Aad]N[dF]RW[Dab]-NH2 (lactam 2-7, also called peptide No. 160) [Ac-Arg-cyclo(hGlu-Asn-D-Phe-Arg-Trp-Dab)-NH2] | 8

Target: T1, human recombinant melanocortin-4 …
Test: cell-based or functional assay
Remark: another data set of the same source

Binder | hMC4-R EC50 [nM] | hMC4-R Emax (%)
Ac-RKN[dF]RWD-NH2 (lactam 2-7) [Ac-Arg-cyclo(Lys-Asn-D-Phe-Arg-Trp-Asp)-NH2] | 0.189 | 97
Ac-[dR][Orn]Q[dF]RWE-NH2 (lactam 2-7) [Ac-D-Arg-cyclo(Orn-Gln-D-Phe-Arg-Trp-Glu)-NH2] |  | 89
Ac-[dR]DQ[dF]RWK-NH2 (lactam 2-7, also called peptide No. 71) [Ac-D-Arg-cyclo(Asp-Gln-D-Phe-Arg-Trp-Lys)-NH2] | 2 | 89
Ac-REN[dF]RW[Orn]-NH2 (lactam 2-7, also called peptide No. 161) [Ac-Arg-cyclo(Glu-Asn-D-Phe-Arg-Trp-Orn)-NH2] | 0.413 | 91
B1 | 0.85 | 82
B2 | 0.825 | 99
Ac-R[Aad]N[dF]RW[Dab]-NH2 (lactam 2-7, also called peptide No. 160) [Ac-Arg-cyclo(hGlu-Asn-D-Phe-Arg-Trp-Dab)-NH2] | 0.245 | 98

Target: T4, human recombinant melanocortin-1 …
Test: cell-based or functional assay

Binder | hMC1-R EC50 [nM] | hMC1-R Emax (%)
Ac-RKN[dF]RWD-NH2 (lactam 2-7) [Ac-Arg-cyclo(Lys-Asn-D-Phe-Arg-Trp-Asp)-NH2] | 14 | 91
Ac-R[Orn]N[dF]RWE-NH2 (lactam 2-7, also called peptide No. 154) [Ac-Arg-cyclo(Orn-Asn-D-Phe-Arg-Trp-Glu)-NH2] | 25 | 
Ac-[dR][Orn]N[dF]RWE-NH2 (lactam 2-7, also called peptide No. 156) [Ac-D-Arg-cyclo(Orn-Asn-D-Phe-Arg-Trp-Glu)-NH2] | 80 | 81
Ac-R[Orn]Q[dF]RWE-NH2 (lactam 2-7) [Ac-Arg-cyclo(Orn-Gln-D-Phe-Arg-Trp-Glu)-NH2] |  | 89
Ac-[dR][Orn]Q[dF]RWE-NH2 (lactam 2-7) [Ac-D-Arg-cyclo(Orn-Gln-D-Phe-Arg-Trp-Glu)-NH2] |  | 85
Ac-[dR]DQ[dF]RWK-NH2 (lactam 2-7, also called peptide No. 71) [Ac-D-Arg-cyclo(Asp-Gln-D-Phe-Arg-Trp-Lys)-NH2] |  | 88
Ac-REN[dF]RW[Orn]-NH2 (lactam 2-7, also called peptide No. 161) [Ac-Arg-cyclo(Glu-Asn-D-Phe-Arg-Trp-Orn)-NH2] | 13 | 85
B1 | 22 | 89
B2 | 26 | 98

Target: T2, human recombinant melanocortin-3 …
Test: competitive binding vs Eu-labeled NDP-α-MSH

Binder | Ki [nM]
Ac-RDV[dF]RWK-NH2 (lactam 2-7, also called peptide No. 16) [Ac-Arg-cyclo(Asp-Val-D-Phe-Arg-Trp-Lys)-NH2] | 1060
Ac-RDH[dF]RWK-NH2 (lactam 2-7, also called peptide No. 1) [Ac-Arg-cyclo(Asp-His-D-Phe-Arg-Trp-Lys)-NH2] | 103

Target: T3, endogenous MC1-R of B-16 mouse melanoma …
Test: competitive binding vs Eu-labeled NDP-α-MSH

Binder | Ki [nM]
Ac-RDV[dF]RWK-NH2 (lactam 2-7, also called peptide No. 16) [Ac-Arg-cyclo(Asp-Val-D-Phe-Arg-Trp-Lys)-NH2] | 323
Ac-RDH[dF]RWK-NH2 (lactam 2-7, also called peptide No. 1) [Ac-Arg-cyclo(Asp-His-D-Phe-Arg-Trp-Lys)-NH2] | 4
B3 | 673
